Results published in a protein production outcome set (Wang et al. 2014).

Experiment: label from the status in PepcDB records
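Further: failed if final PepcDB status was selected cloned or expressed and not failed if soluble or beyond.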

Protein production, not failed:
MNKTLIAAAVAGIVLLASNAQAQTVPEGYQLQQVLMMSRHNLRAPLANNGSVLEQSTPNKWPEWDVPGGQLTTKGGVLEVYMGHYMREWLAEQGMVKSGECPPPYTVYAYANSLQRTVATAQFFITGAFPGCDIPVHHQEKMGTMDPTFNPVITDDSAAFSEQAVAAMEKELSKLQLTDSYQLLEKIVNYKDSPACKEKQQCSLVDGKNTFSAKYQQEPGVSGPLKVGNSLVDAFTLQYYEGFPMDQVAWGEIKSDQQWKVLSKLKNGYQDSLFTSPEVARNVAKPLVSYIDKALVTDRTSAPKITVLVGHDSNIASLLTALDFKPYQLHDQNERTPIGGKIVFQRWHDSKANRDLMKIEYVYQSAEQLRNADALTLQAPAQRVTLELSGCPIDADGFCPMDKFDSVLNEAVK
MNLANIVQRGWEALGAGDFDTLVTDYVEKMIFIMPGQADVLKGRQAFRSALDNLGEILPPGFEITGLRQLEGENEIVSIVEWKSDKMIASQLSVLFKFEGDQIYEERWFVDTEQWKSVF
MNLFGQKDRGNHVSGVDRGKVIMYGLSTCVWCKKTKKLLTDLGVDFDYVYVDRLEGKEEEEAVEEVRRFNPSVSFPTTIINDEKAIVGFKEKEIRESLGF
MNLNQLDIIVSNVPQVCADLEHILDKKADYANDGFAQFTIGSHCLMLSQNHLVPLENFQSGIIIHIEVEDVDQNYKRLNELGIKVLHGPTVTDWGTESLLVQGPAGLVLDFYRMK

Protein production, failed:
MNKMLYGWLLAACCGLPPAFAGDSVDVLAQPALHGPQALRAVLQDVARADARLVAVGERGVVLLSDDNGATWRQATAVPVGVSLTAVQFIDARNGWAVGHAGVVLHSQDGGEHWSVQLDGKRAAALEVQAAEAAADERRLAAAQRLLADGADKPLLALNFTDARNGLVVGAYGVAMRTDDGGRSWQSEIGRLPNGRGLHLYALARQGNQVYIAGEQGLLLRSRDGGEHYEALHGPYDGSYFAATVLPDGRLLLGGLRGSLFASDDGGDSFQALANPTPASINGLRVAGGQLLLANQAGMLLRSGLGAFAAQPVAVSDGLPLTAATTAADGSIVAVGMAGARRLEPSSLSTTTD
MNKPATIDFATATAIQIPAATAQAEALHDLVPGEARDSLLAVHDVLRRELPQGRLAIYEAGGGSCSVLPPELLSRSQVTVVDIDEDQVRNNTYADEAIRGDVQTYRFGGETFDLVICYNVIEHLPNVDAALLNFRDALKRGGMILIGAPNPRSLSGVVTKYSPHWFHVWFYRHIRGIRDAGLPGEPPFPTFFHPLVTLPRLEAFAAANGLDMTYRREVESPRYPEMRRRKPLFAALVDAGAAMLNAVLPRGTDVRRGDYHVILRKS
MNKPYFIAFLLSLALWTVIPSVFAGDVVLKVFEGKPRINSPHITGNYPSTPFIFYIPTSGQRPMQWSAEKLPEGLELDSKTGIISGVMTSKGDYTVTLKAENALGVSVKQLVIRIGDELLLTPPMGWNSWNTFGQHLTEELVLQTADAMITNGMRDLGYSYINIDDFWQLPERGADGHLQIDKTKFPRGIKYVADYLHERGFKLGIYSDAAEKTCGGVCGSYGYEETDAKDFASWGVDLLKYDYCNAPVDRVEAMERYAKMGRALRATNRSIVYSVCEWGQREPWKWAKQVGGHLWRVSGDIGDIWYRDGNRVGGLHGILNILEINAPLSEYAGPSGWNDPDMLVVGIDGKSMSIGYESEGCTQEQYKSHFSLWCMMASPLLSGNDVRNMNDSTLKILLDPDLIAINQDVLGRQAERSIRSDHYDIWVKPLADGCKAVACFNRASSPQTVILNENTIADLSFEQIYCLDSHLTKSGSDSKELIVKLAPYQCKVYILGKTDLEHHHHHH
MNKRNWTAYYNSTKQNTLPRKSLLKAIANFDKEKINLSKSAIDLGCGAGIDVMELLRCGWSVIAIDSQLSAIDSLLSSAQELTCANKLKTIISSFEALDSLPKVNLINASFSLPFLKPVYFYKFWSVILKGLKPGGRFSGSFFGFNDFWNTRTDMTFLNREMICHLFSQFKIEYFQEEEKDEMDALGYYKHWHKFFIVAKKIALEHHHHHH
MNKRPARPTRSRRRISVAPATRQLRNARQMMADDIAVARAVERGELETEEHPTHGATNAEKAAESGLQPQPSDHEKAEVATSKHGLPKLTIVLLTVAAAWLGLSFLHELSSVVAPLFFGLNLLITAYPIHTWLVKHKCPRWISATTAGTAVIVVLAAGVVGMVWSVAAMINQLQSYIPQMEKIYTQLLHWSTQLGYSQDVIADKLKKIDPQQVMSVVTSVASDTTSVVTMIIVILTGMIFMVMDTPQMHDRLRMAGSRKPDVVLALESFASGIRKYWLVTTVFGLIVALFDWAALLIIGVPLAGVWALFSFLTNYIPNIGFIIGVIPPALLALFKDGWVAAVAVVVSYSVLNFVIQSIIQPKFAGDAVGLTPTMSFVSLLLWGWVFGALGTLIALPCSLLVKATLIDHDPGARWVNALISSRPTEGLEDNPDE
MNKRPASGTGHSVLRRSTRRQLLGAAAGATAALCGCLDDNGTDRTEPLDVSIGDVATYRYGPQRRGVADTTVPETAPDERWRLNTDWPVRAAPAVVGGVVYHCGNGLAAVDAVDGERLWRVDTDGPSETPPAVADGVVFAGTHRGRLHAINSDGTEHWTASGNGRIDAAPVVVDGRVYTASRATDGEVYAFEAGGREWTHEAVYRVNSPPAVADGLVFVGGWEGAVYGIDADSGERQWRTATDGPVLSSPAVADGRVFAGGNDGVVRALDVADGDERWQVETAATPTAPAVADGSLYVGDADGRLRRLDAATGEEGWQVTVASGIGVPPTVVEGTVVVGTTDGGVVAVDAADGTERWRVDTGERIRSQPVLAAGRVFVGSGRRLLALGK
MNKTFVGFIFLLFLVGGVVSCQRSSSPYPYSLRYADSLMEISPERTLAYLRKLDVSTYSAGDRAYFSLLFTQATDKNMLSLLPCDSLIDTALDYYIKKDGVNWAKAWLYKGRIQKKMNMTEQALKSCFTALQGVEGNTGEELKLKGMLYEDMGSIYLHQSLYQKAFDAFYRSYQCDSLLNDHRLVMYPLSNMGWVRVIQGKTVEAFYYLNQSIQLALRLNDSAFVSDIYERMSLNCENVDSAFLYAHLSHQYLTKDGDSISLWLTFGDLYLDKQELDSAEYYLKRILDTADFKRKILASYSLAEVEKIRGNYQRAFEYQSYYGDNIDSIFLLNKASDIERLAYKYDSEAKVVKEKEKQRFLIQQLCYGGVLFLLVIVVIFQRVYRRRQIARLLYEQRITYLNEKTALSQLQIERLEVQISALKQSGMEREQEIDLKQAELCCVIDEKARLRNCLFMETSIFKHIRELSTQPRLGQNGTKGSPKVLLMKEQEQLKNILFGIYDDYIRYLKGTYPKITDNDCIYCCLKLCEFDDQTIAYCFGNVSKQIVAQRRLRLKKKMAEAN
MNKYFPLAKYKKEKMMFMKLLEGCYKVERLYIYSKRLCKQMEPKSQEEYNIARKQIKKTFDEGWTEADCGGRESCILEIPFVFWSSPNKSNCRRQPKRSYGKKLLYIPLNDLKDDIPYPNSSSEAGKVWKPQ
MNLDRRGLILLVILTLAWGINWPIMKLGVAHFPAMAFRLLCMAGGLVALGLALTFRGDSLRVPRAAWGTVLKLAIPNMVIWHLFAICAVKMLSSGRAAILGYTMPIWAVVWGLVIFRDRIALSAWIGIGCALAGTVLLLSGEIAALTGSPAGTLLMLVAAAGWGFGTQLMKRTHTDVPIGAMTFWMLAITLPFLGAGTLLFESGWRMPTAIEWGAIAYNAVVVFAYCHLVWFALARSLPPVVSSLSIMFIPVVGVFSGMWFLGETPHWQDYVAIVLMFAALSSVMLAPLLRRRM
MNLETIPSGELTVSNQRSISRLVAQAGQMLLAHGAESTLVCDIMRRIGLACGVHEVAVALSANALVVTTVMDGHCITTTRSCADRGINMRVITQIQRICIMMERGLLDAAMAQKKLNTISPERYNRWLVVLMIGLSCAAFSHLAGGDWGVFIMTFLASAGGMIVRQEIGHRHFNPLLNFAATAFVTTLISAQAEIYQIGNLPTVAMASSVLMLVPGFPLINSVADMLKGHINMGIARFVMASLLTLATCLGIVAAMSVTGIWGWAI
MNLFKKIIFGAAVMGLMAAGDASAAGKIVIDGSTTVGPIAKAFAAYFHKKTGIDVTVSESGSGNGAKSLINKTCDIADMSRPMEPKEIAAAKANGVNPVEHVVALDGLSMIVHPSNPVAKLTTAQIHDIYLGKITNWKQVGGPNAQIVFVQRESNSGTQECFEKLVMKDDKIAPAAETAASNGAVKSRVASTPNAIGFVGLGFVDKSVKPLIVNGVKPSIATVRNGSYVLHRPLFMYTNGQPKGDVAKFINLPKTPDGKRMISELGFVNK
MNLGAAEEESAQEIHLPADINWEMLDKSKFFVLGAALFSGVSGALYPAVLMKTRQQVCHSQGSCIKTAFTLVRHEGLRGLYRGFGTSLMGTIPARALYMTALEVTKSNVGSAAVSLGLTEAKAAAVANAVGGLSAAMAAQLVWTPVDVVSQRLMVQGSAGLVNASRCNYVNGFDAFRKIVRADGPKGLYRGFGISILTYAPSNAVWWASYSVAQRMVWGGIGCYVCKKDEESGNNSTTMKPDSKTIMAVQGVSAAIAGSVSALITMPLDTIKTRLQVLDGEDSSNNGKRGPSIGQTVRNLVREGGWTACYRGLGPRCASMSMSATTMITTYEFLKRLSAKNHDGFYSKS
MNLIKTCGLCLLLSVALSGCVTAPTPPESDPQAEQAVLEVSFSEAVKAMKQGNFTEARTVFEQLARNYPDKAGPMANLGIIAFREGDADGAKEWFERARAVNPEHVQALNHLGVIARNAGEFDEAERYYRAALAADPDYAPAILNLAFLLDIYLGNPADAIELYERYQSAASEPHPRLEDWIFDAKNRI
MNLLNLFTYVIPIAICIILPIFIIVTHFQIKSLNKAVTSFNKGDRSNALEILSKLVKSPIKNVKANAYITRERIYFYSRDFELSLRDLLQAIKLRPKTINDVYSFALSYHILGEPERALKYFLRAVELQPNVGISYENLAWFYYLTGKYDKAIENFEKAISMGSTNSVYRSLGITYAKIGDYKKSEEYLKKALDAEPEKPSTHIYFSYLKRKTNDIKLAKEYALKAIELNKNNFDGYKNLAEVNLAEDDYDGFYKNLEIFLEKINFVTNGEDFNDEVYDKVKDNEKFKELIAKTKVIKFKDLGIEIDDKKILNGKFLV
MNLNEYKLLTFFNMKYKRKSKEEFLIKYQHDNTFRIMSLCLIILFLGVMSASVAHAESYKFVTKWGSYGNGAGQFHYPRAIVATSSGYIYVADSGNNRVQEFNSNGKFINQWSSTNDVSLGSVNGVAIDSSGDVYVADTNNRIVKFDKNGNFITKFGSYGSGNVQFKNARDICLDSSGNIYVADTGNNRIQKLDNNGNYLVQWGSYGSSNGQFKNPIDVALDSLDNVYVADKDNHCIKKFDSNGNYLMQFGNSGNGDGQFNNIISVFVDSSGNIYVSDRGNTRIQKFDSDGNYLTHWGSYGTNDGQFKNPEDIGVDSSGNVYVADADNNRIQKFAPVYPPVTNFVSNVTTGYAPLAVKFTDTSTGTPFSWTWNFGDGTFSTVKNPTHTYSKAGKYTVKLTATNEGGNSTAAKTNYITVKTTTVKPVAIFSASPTSGKAPLKVTFTDKSTGSPTKWKWNFGDGSKSFLQNPSHKYSKAGKYTVSLTVKNDKGSNTVTKTNYLTVVAKPVAAFSASPTSGKAPLKVTFTDKSTGSPTKWKWNFGDGTTSAKQNPIHKYSKAGKYKVTLTVANAAGINTVTKTNYITVIAKPAAAFSASPTSGKAPLKVTFSDKSTGTPTKWKWTFGDGSKSFLQNPTHKYSKAGKYKVILTVTNTAGSNTVTKTNYITVVAKPVAAFSASPTSGKAPLKVTFSDKSTGTPTKWKWNFGDGATSIKQNPVHKYSNVGSYTVKLTVTNAAGSNTKTISNYIILKSK
MNLQHITILTLFIEGLLSFFSPCVLPILPVYIGILAGQGEEKQSGEIIWDRRKVFTNTFLFISGIAATFFILAFASSLISQFLQSHIQFLQNLGGILILIMGLVQVGLIKSHFFNREYSAKNKVYQAGQKVTPLIAFLMGFTFSFSWTPCIGPILASVFLYASTHQGIYSVLLILIYCLGFVIPFALIALFSQRVMSVFKKQKRFLKYTKLFSGILLILIGISILTGSFAKIAHLFN
